T1: GFP-tagged CSF1R immunoprecipitated from HEK293T cells (UniProt P09581)
T1 sequence: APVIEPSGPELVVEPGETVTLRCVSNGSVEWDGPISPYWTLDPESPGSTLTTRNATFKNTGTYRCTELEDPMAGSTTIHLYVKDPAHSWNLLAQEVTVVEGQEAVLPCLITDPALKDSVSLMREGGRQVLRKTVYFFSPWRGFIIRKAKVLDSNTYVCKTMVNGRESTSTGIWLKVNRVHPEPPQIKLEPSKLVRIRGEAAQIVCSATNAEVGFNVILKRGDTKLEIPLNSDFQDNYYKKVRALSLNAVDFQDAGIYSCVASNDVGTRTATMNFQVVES

T2: GFP-tagged CSF1R immunoprecipitated from HEK293T cells (UniProt P09581 20-298)
T2 sequence: T1 sequence

T3: CSF1R protein immobilised for SPR (UniProt P09581 20-298)
T3 construct: CSF1R protein used at 30 µg/ml for covalent immobilisation
T3 sequence: T1 sequence

B1: Macrophage colony-stimulating factor (ligand)
chain: KEVSEHCSHMIGNGHLKVLQQLIDSQMETSCQIAFEFVDQEQLDDPVCYLKKAFFLVQDIIDETMRFKDNTPNANATERLQELSNNLNSCFTKDYEEQNKACVRTFHETPLQLLEKIKNFFNETKNLLEKDWNIFTKNCNNSFAKCSSRDVVTKPDCNCLYPKATPSSDPASASPHQPPAPSMAPLAGLAWDDSQRTEGSSLLPSELPLRIEDPGSAKQRPPRSTCQTLESTEQPNHGDRLTEDSQPHPSAGGPVPGVEDILESSLGTNWVLEEASGEASEGFLTQEAKFSPSTPVGGSIQAETDRPRALSASPFPKSTEDQKPVDITDRPLTEVNPMRPIGQTQNNTPEKTDGTSTLREDHQEPGSPHIATPNPQRVSNSATPVAQLLLPKSHSWGIVLPLGELEGKRSTRDRRSPAELEGGSASEGAARPVARFNSIPLTDTGHVEQHEGSSDPQIPESVFHLLVPGIILVLLTVGGLLFYKWKWRSHRDPQTLDSSVGRPEDSSLTQDEDRQVELPV
B2: parvalbumin (recombinant protein) (natural protein, UniProt P32848 1-110, looked up)
chain: MSMTDVLSAEDIKKAIGAFAAADSFDHKKFFQMVGLKKKNPDEVKKVFHILDKDKSGFIEEDELGSILKGFSSDARDLSAKETKTLLAAGDKDGDGKIGVEEFSTLVAES
notes: parvalbumin, recombinant; The only source printed for a recombinant parvalbumin is human parvalbumin 15333-H08E (Sino Biological), named for the PBMC experiments only; also called PVALB; rPVLAB; source: recombinant protein

Columns and labels:
[1] = molecular target: T1, GFP-tagged CSF1R immunoprecipitated from HEK293T cells
[2] = molecular target: T2, GFP-tagged CSF1R immunoprecipitated …; test: cell-based or functional assay
[3] = molecular target: T3, CSF1R protein immobilised for SPR; test: SPR; Open SPR (Nicoya); CSF1R (30 µg/ml) covalently immobilised on COOH sensor chip by EDC/NHS; parvalbumin injected from low to high concentrations, 20 µl/min for 5 min; analysed with Trace Drawer; conditions: both partners purified

| Binder | ELK1-Luc reporter: concentration-response of MCSF on CSF1R activation in cells stably expressing CSF1R (EC50) [1] [nM] | ELK1-Luc reporter: concentration-response of parvalbumin on CSF1R activation in the presence of MCSF (IC50) [2] [nM] | Kd [3] [nM] |
| --- | --- | --- | --- |
| B1 | 0.36 |  |  |
| B2 |  | 3.26 | 3650 |
